Assay results: US20240218079A1, “PLASMA KALLIKREIN ANTIBODIES AND USES THEREOF” (Astria Therapeutics, Inc., priority 2021, published 2024)

Columns and labels:
Hepsin = test: cell-based or functional assay
Thrombin a = test: cell-based or functional assay

Chain of DX-2930 (antibody) (VH): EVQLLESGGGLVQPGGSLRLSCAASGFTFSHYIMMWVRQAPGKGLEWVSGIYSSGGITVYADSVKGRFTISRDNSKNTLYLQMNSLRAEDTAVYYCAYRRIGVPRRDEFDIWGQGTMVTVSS
Chain of DX-2930 (antibody) (VL): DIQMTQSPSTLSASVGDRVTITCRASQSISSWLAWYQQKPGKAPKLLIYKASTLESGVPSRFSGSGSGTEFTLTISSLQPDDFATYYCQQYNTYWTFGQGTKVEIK

IC50, protease inhibition assay, fluorescent peptide substrate, Duplicate 1 (Hepsin): > 1000 nM
IC50, protease inhibition assay, fluorescent peptide substrate, Duplicate 2 (Hepsin): > 1000 nM
IC50, protease inhibition assay, fluorescent peptide substrate, Duplicate 1 (Thrombin a): > 1000 nM
IC50, protease inhibition assay, fluorescent peptide substrate, Duplicate 2 (Thrombin a): > 1000 nM
Substance: DX-2930 (antibody)
